Laboratory results taken from US20160272693A1 (ZEALAND PHARMA A S, published 2016).
*1 amine or outer side, *2 acyl side, *3 side chain or, on linkers, in order; H or OH if unused. Bridges are numbered along the chain shown (N, C = ends). [ ]: non-standard residue; d: D form. The star is where a group is joined. C20 diacid = O=C(O)CCCCCCCCCCCCCCCCCCC(=O)*; γGlu = O=C(O)[C@H](CCC(=O)[*:2])N[*:1]; Hyp = O=C(O)[C@@H]1C[C@@H](O)CN1; NMeI = CC[C@H](C)[C@H](NC)C(=O)O; Sar = CNCC(=O)O

T1: human amylin receptor 3 (hAMYR3), hCTR2 co-expressed with human receptor activity modifying protein 3 (hRAMP3) (human, UniProt P30988 25-474; O60896 24-148)
T1 sequence (looked up) 1: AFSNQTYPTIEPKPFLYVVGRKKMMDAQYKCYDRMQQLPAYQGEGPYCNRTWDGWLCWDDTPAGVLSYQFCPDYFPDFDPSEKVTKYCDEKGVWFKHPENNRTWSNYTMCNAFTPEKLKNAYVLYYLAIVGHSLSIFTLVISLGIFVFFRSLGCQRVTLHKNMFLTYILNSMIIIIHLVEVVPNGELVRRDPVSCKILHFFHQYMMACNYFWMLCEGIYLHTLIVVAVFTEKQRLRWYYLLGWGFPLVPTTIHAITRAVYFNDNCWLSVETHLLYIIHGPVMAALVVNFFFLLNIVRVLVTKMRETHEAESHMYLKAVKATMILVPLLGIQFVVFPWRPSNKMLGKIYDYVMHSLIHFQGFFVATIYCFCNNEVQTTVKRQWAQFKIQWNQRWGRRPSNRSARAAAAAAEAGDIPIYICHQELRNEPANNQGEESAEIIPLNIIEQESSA
T1 sequence (looked up) 2: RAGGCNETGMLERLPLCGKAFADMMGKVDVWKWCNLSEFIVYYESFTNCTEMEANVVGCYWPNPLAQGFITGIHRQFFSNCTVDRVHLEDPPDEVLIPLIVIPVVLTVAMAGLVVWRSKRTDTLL


Target: T1, human amylin receptor 3 (hAMYR3), hCTR2 …
Experiment: cell-based or functional assay

Binder | hAMYR3 EC50 (nM); cAMP induction [nM]
{C20 diacid-γGlu}-RCNTATCATQRLADFLQRSSF[Sar]A[NMeI]LSSTEVGSNTP-NH2 (disulfide 2-7; SMILES CC[C@H](C)[C@@H](C(=O)N[C@@H](CC(C)C)C(=O)N[C@@H](CO)C(=O)N[C@@H](CO)C(=O)N[C@H](C(=O)N[C@@H](CCC(=O)O)C(=O)N[C@H](C(=O)NCC(=O)N[C@@H](CO)C(=O)N[C@@H](CC(N)=O)C(=O)N[C@H](C(=O)N1CCC[C@H]1C(N)=O)[C@@H](C)O)C(C)C)[C@@H](C)O)N(C)C(=O)[C@H](C)NC(=O)CN(C)C(=O)[C@H](Cc1ccccc1)NC(=O)[C@H](CO)NC(=O)[C@H](CO)NC(=O)[C@H](CCCNC(=N)N)NC(=O)[C@H](CCC(N)=O)NC(=O)[C@H](CC(C)C)NC(=O)[C@H](Cc1ccccc1)NC(=O)[C@H](CC(=O)O)NC(=O)[C@H](C)NC(=O)[C@H](CC(C)C)NC(=O)[C@H](CCCNC(=N)N)NC(=O)[C@H](CCC(N)=O)NC(=O)[C@@H](NC(=O)[C@H](C)NC(=O)[C@@H]1CSSC[C@H](NC(=O)[C@H](CCCNC(=N)N)NC(=O)CC[C@H](NC(=O)CCCCCCCCCCCCCCCCCCC(=O)O)C(=O)O)C(=O)N[C@@H](CC(N)=O)C(=O)N[C@@H]([C@@H](C)O)C(=O)N[C@@H](C)C(=O)N[C@@H]([C@@H](C)O)C(=O)N1)[C@@H](C)O) [[19CD]-isoGlu-R-C( )-NTAT-C( )-ATQRLADFLQRSSF-Gly(Me)-A-Ile(Me)-LSSTEVGSNTP-NH2 (Compd. 65)] | 0.26
{C20 diacid}-[γGlu]RCPTATCATERLADFLQRSSF[Sar]A[NMeI]LSSTEVGSNTP-NH2 (disulfide 3-8; SMILES CC[C@H](C)[C@@H](C(=O)N[C@@H](CC(C)C)C(=O)N[C@@H](CO)C(=O)N[C@@H](CO)C(=O)N[C@H](C(=O)N[C@@H](CCC(=O)O)C(=O)N[C@H](C(=O)NCC(=O)N[C@@H](CO)C(=O)N[C@@H](CC(N)=O)C(=O)N[C@H](C(=O)N1CCC[C@H]1C(N)=O)[C@@H](C)O)C(C)C)[C@@H](C)O)N(C)C(=O)[C@H](C)NC(=O)CN(C)C(=O)[C@H](Cc1ccccc1)NC(=O)[C@H](CO)NC(=O)[C@H](CO)NC(=O)[C@H](CCCNC(=N)N)NC(=O)[C@H](CCC(N)=O)NC(=O)[C@H](CC(C)C)NC(=O)[C@H](Cc1ccccc1)NC(=O)[C@H](CC(=O)O)NC(=O)[C@H](C)NC(=O)[C@H](CC(C)C)NC(=O)[C@H](CCCNC(=N)N)NC(=O)[C@H](CCC(=O)O)NC(=O)[C@@H](NC(=O)[C@H](C)NC(=O)[C@@H]1CSSC[C@H](NC(=O)[C@H](CCCNC(=N)N)NC(=O)CC[C@H](NC(=O)CCCCCCCCCCCCCCCCCCC(=O)O)C(=O)O)C(=O)N2CCC[C@H]2C(=O)N[C@@H]([C@@H](C)O)C(=O)N[C@@H](C)C(=O)N[C@@H]([C@@H](C)O)C(=O)N1)[C@@H](C)O) [[19CD]-isoGlu-R-C( )-PTAT-C( )-ATERLADFLQRSSF-Gly(Me)-A-Ile(Me)-LSSTEVGSNTP-NH2 (Compd. 67)] | 0.65
{C20 diacid-γGlu}-RCNTATCATERLADFLQRSSF[Sar]A[NMeI]LSSTEVGSNTP-NH2 (disulfide 2-7; SMILES CC[C@H](C)[C@@H](C(=O)N[C@@H](CC(C)C)C(=O)N[C@@H](CO)C(=O)N[C@@H](CO)C(=O)N[C@H](C(=O)N[C@@H](CCC(=O)O)C(=O)N[C@H](C(=O)NCC(=O)N[C@@H](CO)C(=O)N[C@@H](CC(N)=O)C(=O)N[C@H](C(=O)N1CCC[C@H]1C(N)=O)[C@@H](C)O)C(C)C)[C@@H](C)O)N(C)C(=O)[C@H](C)NC(=O)CN(C)C(=O)[C@H](Cc1ccccc1)NC(=O)[C@H](CO)NC(=O)[C@H](CO)NC(=O)[C@H](CCCNC(=N)N)NC(=O)[C@H](CCC(N)=O)NC(=O)[C@H](CC(C)C)NC(=O)[C@H](Cc1ccccc1)NC(=O)[C@H](CC(=O)O)NC(=O)[C@H](C)NC(=O)[C@H](CC(C)C)NC(=O)[C@H](CCCNC(=N)N)NC(=O)[C@H](CCC(=O)O)NC(=O)[C@@H](NC(=O)[C@H](C)NC(=O)[C@@H]1CSSC[C@H](NC(=O)[C@H](CCCNC(=N)N)NC(=O)CC[C@H](NC(=O)CCCCCCCCCCCCCCCCCCC(=O)O)C(=O)O)C(=O)N[C@@H](CC(N)=O)C(=O)N[C@@H]([C@@H](C)O)C(=O)N[C@@H](C)C(=O)N[C@@H]([C@@H](C)O)C(=O)N1)[C@@H](C)O) [[19CD]-isoGlu-R-C( )-NTAT-C( )-ATERLADFLQRSSF-Gly(Me)-A-Ile(Me)-LSSTEVGSNTP-NH2 (Compd. 66)] | 0.3

Second part, the binder after the results:

hAMYR3 EC50 (nM); cAMP induction [nM] | Binder
0.29 | {C20 diacid-γGlu}-RCNTATCATERLADFLQRSSF[Sar]A[NMeI]LSSTEVGSNT[Hyp]-NH2 (disulfide 2-7; SMILES CC[C@H](C)[C@@H](C(=O)N[C@@H](CC(C)C)C(=O)N[C@@H](CO)C(=O)N[C@@H](CO)C(=O)N[C@H](C(=O)N[C@@H](CCC(=O)O)C(=O)N[C@H](C(=O)NCC(=O)N[C@@H](CO)C(=O)N[C@@H](CC(N)=O)C(=O)N[C@H](C(=O)N1C[C@H](O)C[C@H]1C(N)=O)[C@@H](C)O)C(C)C)[C@@H](C)O)N(C)C(=O)[C@H](C)NC(=O)CN(C)C(=O)[C@H](Cc1ccccc1)NC(=O)[C@H](CO)NC(=O)[C@H](CO)NC(=O)[C@H](CCCNC(=N)N)NC(=O)[C@H](CCC(N)=O)NC(=O)[C@H](CC(C)C)NC(=O)[C@H](Cc1ccccc1)NC(=O)[C@H](CC(=O)O)NC(=O)[C@H](C)NC(=O)[C@H](CC(C)C)NC(=O)[C@H](CCCNC(=N)N)NC(=O)[C@H](CCC(=O)O)NC(=O)[C@@H](NC(=O)[C@H](C)NC(=O)[C@@H]1CSSC[C@H](NC(=O)[C@H](CCCNC(=N)N)NC(=O)CC[C@H](NC(=O)CCCCCCCCCCCCCCCCCCC(=O)O)C(=O)O)C(=O)N[C@@H](CC(N)=O)C(=O)N[C@@H]([C@@H](C)O)C(=O)N[C@@H](C)C(=O)N[C@@H]([C@@H](C)O)C(=O)N1)[C@@H](C)O) [[19CD]-isoGlu-R-C( )-NTAT-C( )-ATERLADFLQRSSF-Gly(Me)-A-Ile(Me)-LSSTEVGSNT-Hyp-NH2 (Compd. 68)]
0.17 | {C20 diacid}-[γGlu]RCNTATCATQRLAHFLQRSSF[Sar]A[NMeI]LSSTEVGSST[Hyp]-NH2 (disulfide 3-8; SMILES CC[C@H](C)[C@@H](C(=O)N[C@@H](CC(C)C)C(=O)N[C@@H](CO)C(=O)N[C@@H](CO)C(=O)N[C@H](C(=O)N[C@@H](CCC(=O)O)C(=O)N[C@H](C(=O)NCC(=O)N[C@@H](CO)C(=O)N[C@@H](CO)C(=O)N[C@H](C(=O)N1C[C@H](O)C[C@H]1C(N)=O)[C@@H](C)O)C(C)C)[C@@H](C)O)N(C)C(=O)[C@H](C)NC(=O)CN(C)C(=O)[C@H](Cc1ccccc1)NC(=O)[C@H](CO)NC(=O)[C@H](CO)NC(=O)[C@H](CCCNC(=N)N)NC(=O)[C@H](CCC(N)=O)NC(=O)[C@H](CC(C)C)NC(=O)[C@H](Cc1ccccc1)NC(=O)[C@H](Cc1c[nH]cn1)NC(=O)[C@H](C)NC(=O)[C@H](CC(C)C)NC(=O)[C@H](CCCNC(=N)N)NC(=O)[C@H](CCC(N)=O)NC(=O)[C@@H](NC(=O)[C@H](C)NC(=O)[C@@H]1CSSC[C@H](NC(=O)[C@H](CCCNC(=N)N)NC(=O)CC[C@H](NC(=O)CCCCCCCCCCCCCCCCCCC(=O)O)C(=O)O)C(=O)N[C@@H](CC(N)=O)C(=O)N[C@@H]([C@@H](C)O)C(=O)N[C@@H](C)C(=O)N[C@@H]([C@@H](C)O)C(=O)N1)[C@@H](C)O) [[19CD]-isoGlu-R-C( )-NTAT-C( )-ATQRLAHFLQRSSF-Gly(Me)-A-Ile(Me)-LSSTEVGSST-Hyp-NH2 (Compd. 69)]
